# Test results reported in article PMC5131957, “p53 Specifically Binds Triplex DNA In Vitro and in Cells”.
# B1: CON, biotinylated (dsDNA)
# DNA 1: GACGGTATCGATAAGAGACATGCCTAGACATGCCTCTTGATATCGAATTC
# DNA 2: GAATTCGATATCAAGAGGCATGTCTAGGCATGTCTCTTATCGATACCGTC
# B2: T.A.T triplex, biotinylated (structured_DNA)
# DNA 1: TTTTTTTTTTTTTTTTTTTTTTTTTTTTTTTTTTTTTTTTTTTTTTTTTT
# DNA 2: AAAAAAAAAAAAAAAAAAAAAAAAAAAAAAAAAAAAAAAAAAAAAAAAAA
# DNA 3: B2 DNA 1
# Experiments:
# p53 full length = p53 full length (human, UniProt P04637 1-393); test: ELISA; DO1 antibody; 2 mM Mg2+; EMSA: 5 mM Tris-HCl pH 8, 1 mM MgCl2, 0.01% Triton X-100, 50 mM KCl, on ice or 25 C, 30 min, pBSK/SmaI competitor 5-50 ng; ELISA: 1x PBS, 2 mM MgCl2, temperature not stated; settings: protein: recombinant, chain copies: 4
# p53 full length, sequence (P04637 whole entry): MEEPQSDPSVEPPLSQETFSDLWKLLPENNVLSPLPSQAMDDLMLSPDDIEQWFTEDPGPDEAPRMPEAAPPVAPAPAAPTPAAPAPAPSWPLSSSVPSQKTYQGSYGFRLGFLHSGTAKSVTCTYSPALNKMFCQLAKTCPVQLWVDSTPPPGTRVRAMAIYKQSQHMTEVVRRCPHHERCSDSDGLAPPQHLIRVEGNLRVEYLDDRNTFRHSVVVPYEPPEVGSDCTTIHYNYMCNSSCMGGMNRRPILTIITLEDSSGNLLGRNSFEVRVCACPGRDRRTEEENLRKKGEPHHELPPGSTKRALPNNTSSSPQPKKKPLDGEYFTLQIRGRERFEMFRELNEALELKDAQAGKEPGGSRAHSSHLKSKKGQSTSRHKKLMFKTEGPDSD
# p53T (last 30 aa, CTDBD) = p53T (last 30 aa, CTDBD) (human, UniProt P04637 363-393); test: ELISA; 2 mM Mg2+; EMSA: 5 mM Tris-HCl pH 8, 1 mM MgCl2, 0.01% Triton X-100, 50 mM KCl, on ice or 25 C, 30 min, pBSK/SmaI competitor 5-50 ng; ELISA: 1x PBS, 2 mM MgCl2, temperature not stated; settings: protein: recombinant; tags: GST (with or without); label: 3' biotin on (dA)50; intermolecular triplex, 2 x (dT)50 + 1 x (dA)50
# p53T (last 30 aa, CTDBD), sequence (P04637 363-393): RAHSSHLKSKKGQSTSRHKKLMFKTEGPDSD
# [1] = biological target: p53CT (C-terminal segment: tetramerization domain + CTDBD) (human, UniProt P04637 320-393); test: as above; settings: protein: recombinant; tags: GST (with or without); chain copies: 4; label: 3' biotin on (dA)50; intermolecular triplex, 2 x (dT)50 + 1 x (dA)50
# p53CT (C-terminal segment: tetramerization domain + CTDBD), sequence (P04637 320-393): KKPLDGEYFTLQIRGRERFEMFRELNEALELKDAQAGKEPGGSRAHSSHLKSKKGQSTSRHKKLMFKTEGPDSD
Binder,"Kd (p53 full length; label: 3' biotin on strand 1, blunt)","Kd (p53 full length; label: 3' biotin on (dA)50, intermolecular triplex, 2 x (dT)50 + 1 x (dA)50)","Kd (p53T (last 30 aa, CTDBD))",Kd [1]
B1,0.58 ± 0.05 nM,–,–,–
B2,–,0.75 ± 0.07 nM,10.4 ± 0.84 nM,1.88 ± 0.3 nM
